This note sets out measurements from publication PMC6302171.

For this assay, the target named is GFP-profilin-1 (UniProt P07737). Description: co-immunoprecipitation, densitometric analysis of immunoblots. As to conditions: HEK293 cells; cell lysate (1 mg); three independent experiments; parent: est. 6.8; read off a plot. On the technique in general: In western blotting, separated proteins are transferred to a membrane and probed.
GFP-profilin-1, sequence (P07737 2-140): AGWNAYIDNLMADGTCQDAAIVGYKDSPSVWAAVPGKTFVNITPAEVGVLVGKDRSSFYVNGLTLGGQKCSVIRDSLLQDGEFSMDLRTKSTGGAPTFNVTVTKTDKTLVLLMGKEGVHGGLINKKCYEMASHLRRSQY

3×FLAG-CLIC4 WT, Q9Y696 C35A, sequence (Q9Y696 whole entry C35A): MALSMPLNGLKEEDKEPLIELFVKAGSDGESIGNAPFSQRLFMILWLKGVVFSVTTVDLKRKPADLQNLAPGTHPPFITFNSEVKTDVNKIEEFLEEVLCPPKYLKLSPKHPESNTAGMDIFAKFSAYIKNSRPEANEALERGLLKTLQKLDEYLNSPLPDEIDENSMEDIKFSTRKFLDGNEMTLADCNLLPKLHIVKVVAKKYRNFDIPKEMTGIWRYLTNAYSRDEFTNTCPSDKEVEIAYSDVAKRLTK

In the case of 3×FLAG-CLIC4 WT, Q9Y696 C35A, the response amounted to 2 A.U.
